Target: T1, GST-PDZK1 tail (human, UniProt Q5T2W1 459-519)
T1 sequence (looked up): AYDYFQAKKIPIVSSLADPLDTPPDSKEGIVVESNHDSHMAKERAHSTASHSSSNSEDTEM
Assay: pull-down

B1: EBP50 (1-354) (domain or fragment, UniProt O14745 1-354, looked up)
chain: MSADAAAGAPLPRLCCLEKGPNGYGFHLHGEKGKLGQYIRLVEPGSPAEKAGLLAGDRLVEVNGENVEKETHQQVVSRIRAALNAVRLLVVDPETDEQLQKLGVQVREELLRAQEAPGQAEPPAAAEVQGAGNENEPREADKSHPEQRELRPRLCTMKKGPSGYGFNLHSDKSKPGQFIRSVDPDSPAEASGLRAQDRIVEVNGVCMEGKQHGDVVSAIRAGGDETKLLVVDRETDEFFKKCRVIPSQEHLNGPLPVPFTNGEIQKENSREALAEAALESPRPALVRSASSDTSEELNSQDSPPKQDSTAPSSTSSSDPILDFNISLAMAKERAHQKRSSKRAPQMDWSKKNEL
  amount precipitated relative to full-length EBP50 (1-358): 2.4 times
